Reference: US20040154051A1 (SYNGENTA PARTICIPATIONS, published 2004)

Target: T1, NIM450 bait (first 450 amino acids of the NIM1 protein, LexA fusion) (Arabidopsis, UniProt P0A7C2 1-202; P93002 1-450)
T1 construct: The LexA fusion is stated outright only for the full-length bait
T1 sequence (looked up): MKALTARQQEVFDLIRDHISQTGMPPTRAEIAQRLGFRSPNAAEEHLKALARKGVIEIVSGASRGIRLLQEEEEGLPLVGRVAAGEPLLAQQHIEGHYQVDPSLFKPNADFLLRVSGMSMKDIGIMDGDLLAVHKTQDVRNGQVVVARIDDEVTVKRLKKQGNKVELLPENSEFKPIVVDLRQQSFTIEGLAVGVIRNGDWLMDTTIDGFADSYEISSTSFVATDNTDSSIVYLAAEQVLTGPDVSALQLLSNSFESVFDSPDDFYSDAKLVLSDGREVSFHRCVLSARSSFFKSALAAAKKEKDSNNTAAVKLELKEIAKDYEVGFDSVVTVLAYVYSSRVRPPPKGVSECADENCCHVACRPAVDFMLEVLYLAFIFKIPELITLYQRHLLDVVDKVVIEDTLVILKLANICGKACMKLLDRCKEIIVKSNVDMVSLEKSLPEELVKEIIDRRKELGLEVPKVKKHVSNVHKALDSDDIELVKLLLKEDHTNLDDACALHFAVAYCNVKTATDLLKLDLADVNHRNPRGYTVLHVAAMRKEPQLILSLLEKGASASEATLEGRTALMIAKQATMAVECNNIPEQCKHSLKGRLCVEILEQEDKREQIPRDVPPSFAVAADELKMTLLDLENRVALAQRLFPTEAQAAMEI
Test: yeast two-hybrid (LexA bait, B42 prey; Leu2 and LacZ reporters)
Procedure: These baits are transformed into yeast strain EGY188, which contains a low sensitivity LexA operator fused to the Leu2 gene, and appropriate tests are performed to determine whether the NIM1 fusion proteins intrinsically activate expression of the yeast reporter genes. […] The library is transformed in combination with one of the three NIM1 baits above and a plasmid containing 2 LexA operators fused to LacZ as a secondary reporter. Approximately 10⁶ transformants are analyzed in screens with each bait, and individual clones that activate both the Leu2 and LacZ reporters are isolated and sequenced by standard procedures.

B1: NI16 clone (Arabidopsis NI16 cDNA clone from the pJG4-5 library, fused to the B42 transcriptional activation domain) (other, not shown: large carriers)
chain: MNNSLKKEERVEEDNGKSDGNRGKPSTEVVRTVTEEEVDEFFKILRRVHVATRTVAKVNGGVAEGELPSKKRKRSQNLGLRNSLDCNGVRDGEFDEINRVGLQGLGLDLNCKPEPDSVSLSL
notes: also called NI16 protein
Question: Does B1 bind?
Answer: Result: no binding
